According to the nanobody polyreactivity screen of Harvey et al. (2022):

Assay: yeast display, Sf9 membrane polyspecificity reagent, FACS + sequencing; frameworks hold sequencing errors
Outline: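 A synthetic nanobody library was expressed on Saccharomyces cerevisiae BJ5465 by galactose induction for 36–48 hours. The library was stained for 1 hour at 4 °C with 10% biotinylated, detergent-solubilized Sf9 membrane reagent and enriched with streptavidin microbeads before FACS. Low and high (top ~1%) gates were set on anti-HA fluorescence for expression and streptavidin fluorescence for reagent binding, and each polyreactivity label reflects the gate of origin.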

Sequence	polyreactivity (PSR sort gate)
QVQLVESGGGLVQAGGSLRLSCAASGFTFRRYAMGWYRQAPGKERELVAVITTAGSTNYADSVKGRFTISRDNAKNTVYLQMNSLKPEDTAVYYCATDNGTRKRRYDYWGQGTQVTVSS	low polyreactivity
QVQLVESGGGLVQAGGSLRLSCAASGRIFARYAMGWYRQAPGKERELVAAIRTSGGITYYADSVKWRFTISRDNAKNTVYLQMNSLKPEDTEVYYCAADFYSYSSVKYDYWGQGTQVTVSS	low polyreactivity
QVQLVESGVGLVQAAGSLRLSCASSGIICGEYAMGWYRQAPGNERELVAAISGSGSRTYYADSVKVRFTISRDIAKNTVFLQMNRLKPEDTAVYYCNSRRYIYNYDYWGQGTQVTVSS	high polyreactivity
QVQLVDSGGGLVQAGGSLRLISAASGLIFSWYDKGWYRQAPGKERELVAAITTDGDDTYYADSVKGRFTISRDNAKNTVYLQMNSLKPDDTAVYYCAADSELGIRYPDRDYDSWGLGTQVTVSS	low polyreactivity
QVQLVESGGGLVQAGGSLRLSCAASGSTFLLYAMGWYRQEPGKERELVAAITWSGASTYYADSVKGRFTISRDNAKNTVYLQMNSLKPEDTAVYYCATRYRYRYWGQGTQVTVSS	high polyreactivity
QVQLVESGGGLVQAGGSLRLSCAASGGTFRVYAMGWYRQAPGKERELFAAISSGGSTNYADSVKGRFTISRDNAKNTVYLQMNSLKPEDTAVYYCNAKYRYRFARSPIYYYWGQGTQVTVSS	high polyreactivity
QVQLVESGGGLVQAGGSLRLSCAASGSILSLYTMGWYRQAPGKERELVAAITRSGGSTYYADSVKGRFTISRDNAKNTVYLQMNSLKPEDTAVYYCAATREVTSYSSAPRVYYWGQGTQVTVSS	high polyreactivity
QVQLVESGGGLVQAGGSLRLSCAASGRIFWGNAMGWYRQAPGKEWELVAAITRRGGTTFYADSVKGRFTISRDNAKNTVYLQMNSLKPEDTAVYYCAARRYGQYDGYDSWGQGTQVTVSS	high polyreactivity
QVQLVESGGGLDQAGGSLRLSCAASGRTINGNTMGCYRQAPGKQRELVAVIDWSGGSTYYADSVKGRFTISRDNAKNTVYLQMNSLKPEDTAVYYCNAETRDPILYGEYDYWGQGTQVTVSS	low polyreactivity
QVQLVESGGGLVQAGGSLRLSCAASGITFVSNGMGWYRTAPGKERELVAAITRSGGSTYYADSVKGRFTISRDNAKNTVYLQMNSLKPEDTAVYYCNARTSRYRRGGDSWGQGTQVTVSS	high polyreactivity
QVQLVESGGGLVQAGGSLRLSCAASGSTFSDYAMGWYRQAPGKERELVAAISGGGTTDYADSVKGRFTISRDNAKNTVYLQMNSLKPEDTAVYYCNKPVEGSFLPYSYLRFDYWGQGTHVTVSS	low polyreactivity
QVQLVESGGGLVQAGGSLRLSCAASGRIFGYYAMGWYRQAPGKERELVARITKTVGGTYYADSVKGRFTISRDNAKNTVYLQMNSLKPEDTAVYYCAARVWTGNGRSKGAYDYWGQGTQVTVSS	high polyreactivity
QVQLVESGGGLVQAGGSLRLSCAASGFIFTTYGMGWYRQAPGKERELVAAISYRGDSTYYADSVKGRFTISRDNAKNTVYLQMNSLKPEDTAVYYCAADVTQKPYGLSHGQDAYDYWGQGTQVTVSS	low polyreactivity
QVQLVESGGGLVQAGGSLRLSCAASGSTFYPNAMGWYRQAPGKERELVAAISRGTRTKYADSVKGRFTISRDNAKNTVYLQMNSLKPEDTAVYYCAKRYYGSPQLRYYYWGQGTQVTVSS	high polyreactivity
QDLLVESGGGLVQAGGSLRLSCAASGYTFGNNAMGWYRQAPGKERELVATISGGGRTKYADSVKGRFTISRDNAKNTVYLQMYSLKPEDTAVYYCNVVQTYYRGSYIYIKYGYWGQGTQVTVSS	high polyreactivity
QVQLVESGGGLVQAGGSLRLSCAASGSTFPAYAMGWYRQAPGKERELVAVINLSGSTYYADSVKGRFTISRDNAKNTVYLQMNSLKPEDTAVYYCNARPYDYYRYGYWGQGTQVTVSS	low polyreactivity
QVQLVESGGGLVQAGGSLRLSCAASGRIFDGNTMGWYRQAPGKERELVAAISGGGSTDYADSVKGRFTISRDNAKNTVYLQMNSLKPEDTAVYYCAATTGPVPLKGDYWGQGTQVTVSS	low polyreactivity
QVHLVESGGGLVQAGGSIRLSCAASGRTLDPYTMGWYRQAPGKERELVAAITSSGGRTTYADSVKGRFTISRDNAKITVYLQMNSLKPEDTAVYYCAKKFRPVYRSQYLRYSWGQGTQVTVSS	low polyreactivity
QVQLVESGGGLVQVGGSLRLSCAASGITLSYYAMGWYRQAPRKERELVASITVSRTSTYYADSVKGRFTISRDNAKNTVYLQMNSLKPEDTEVYYCNADGDHPYRRNDYWGQGTQVTVSS	low polyreactivity
QVQLVESGGGLFQAGGSLRLSCAASGRTFDDYAMGWYRQAPGKERELVAGITDNGGGTNYADSVKGRFTISRDNAKNTVYLQMNSLKQEDTAVYYCAAGETFEMYYWGQVTQVTVSS	low polyreactivity
QVQLVESGGGLVQAGGSLRLSCADSGFTFPSYAMGGYRQAPGKERELVDVISRRGGSTYYADSVKGRFTISRDNAKNTVYLQMNSLKPEDTAVYYCARPRQPGSLYGYWGQGTQVTVSS	high polyreactivity
QVQLVESWGALVQAGGSLRLSCAASRRTFALNAMGWYRQAPGKETELVAAITSSGGSSYYADSVKGRFTISRDIAKNSVYLLMNSLNPVDTAVYYCAADRHYGTEYAYDYWGEGTQVTVSS	low polyreactivity

Sequence	polyreactivity (PSR sort gate)
QVQLVESGGGLVQAGGSLRLSCAASGFIFNFYAMGWYRQAPGKERELVAAISRNGGSTYYADSVKGRFTISRDNAKNTVYLQMNSLKPEDTAVYYCNAVGSYGDFGYWGQGTQVTVSS	high polyreactivity
QVLLVESGGGIVQAGGSLRLSCAASGIIFYVNAMGWYRQAPGKERELVAAITFGGDSTYYADSVKGRFTISRDNAKNTVYLQMNSLKPEDTAVYYCATDGDPAYPEMEYWGQGTQVTVSS	low polyreactivity
QVQLVESGGGLVQAGGSLRLSCAASGSTIGDNAMGWYRQAPGKERELVASISWSGASTYYADSVKGRFTISRDNAKNTVYLQMNSLKPEDTAVYYCAVYYSYYSHLYHLLFSYWGQGTQVTVSS	low polyreactivity
QVQLVESGGGLVQAGGSLRLSCAASGITFPLYVMGWSRQAPGKERELVAAISASGGSTYADSVKGRFTISRDNAKNTVYLQMNSLKPEDTAVYYCNADVYVGYDYDYWGQGTLVTVSS	low polyreactivity
QVQLVESGVGLVQAGGILRLSCAASGRIFNGYALGWYRQAPGKERELVAVITWNGGSTYYADSVKGRFTISRDNAKNTVYLQMNSLKPEETAVYYCADRRTGYYGTRDYWGQVTQVTVSS	high polyreactivity
QVQLVESGGGLVQAGGSLRLSCAASGATFTFYAMGWYRQAPGKERELVATINWSGGSTYYADSVKGRFTISRDNSKYTVYLQMNSMKPEDTAVFYCNAACPFKSVEYWGQGTQVTVSS	low polyreactivity
QVQLVESGGGLVQAGASLRLSCAASGGIFAYYAMGWYRQAPGKERELVAAINRSGGSTRYADSVKGRFTNSRDNAKNTVFLQMNSLKPEETAVYYCATKRSTGYYWGQGTQVTVSS	high polyreactivity
QVQLVESVGGLVQAGGSLRLSCAASGRTCGYKAMGWYRQAPGKERQLVAAISRGGSTNYADSVKGRFTISRDNAKNSVYLQMNSLKPEDTAVYYCAKTIRAYRPSRTAYRLDYWGQGTQVTVSS	high polyreactivity
QVQLVESGGGLVQAGGSLRLSCAASGRTFGFYGMGWYRQAPGKEREFVAAITRRGGSTYYADSVKGRFTISRDNAKNTVYLQMNRLKPEDTAVYYCAAGYSSRYRGGLDYWGQGTQVTVSS	high polyreactivity
QVQLVESGGGLVQAGGSLRLICAASGSTFASYAMGWYRQAPGKERELVAAITRRGGSTYYADSVKGRFTISRDNAKNTVYLQMNSLKPEDTAVYYCAAKWTPATYKFDYWGQGTQVTVSS	high polyreactivity
QVQLVESGGGLVQAGGSLRLSCAASGLIFFTYAMGWYRHAPGKERELVATISRGGRTKYADSVKGRFTISRDNAKNTVYLQMNSLKPEDTAVYYCAAYLSRSYYAYDYWGQGTQVTVSS	high polyreactivity
QVQLVESGGGLVQAGGSLRLSCAAYGRTFTTNAMGWYRQAPGKERELVAAISRLGGSTYYADSVKGRFTISRDNAKNTVYLQMNSLKPEDTAVYYCYAHLWIRGYDYWGQGTQVTVSS	high polyreactivity
QVQLVESGGGLVQAGGSLRLSCAASGRTIASYAMGWYRQAPGKERELVAAITSGGSTYYADSVKGRFTISRDNAKNTVYLQMNSLKPEDTAVYYCAAYVRPAYYAIHVDYWGQGTQVTVSS	low polyreactivity
QVQLVESGGGLVQAGGSLRLSCAASGRTFSRNTMGWYRQAPGKERELVAAIRSGGRTDYADSVKGRFTISRDNAKNTVYLQMNSLKPEDTAVYYCATVAGVSRWRGGYWGQGTQVTVSS	low polyreactivity
QVQLVESGGGLVQAGGSLRLICAASGFIFSSHAMGWYRQAPGKERELVAAISRSGGRTYYADSVKGRFTITRDNAKNTVYLQMNSLKPEDTAVYYCAAKRWWQYYWGQGTQVTVSS	high polyreactivity
QVQLVESGGGLVQAGGSLRLSCAASGRIFVSYAMGWYRQAPGKERELVAAITYSVDSTYYADSVKGRFTISRDNAKNTVYLQMNSLKPEDTAVSYCATDVDWAYGYQYEYWGQGTQVTVSS	low polyreactivity
QVQLVESGGGLVQAGGSLRLSCAASGLTFYRYAMGWYRQAPWKERDFVAAINRNGGSTYYADSVKGRFTISRDNAKNTVYLEMNSLKPEDTAVYYCNARVSGTRSGRVLRDYWGQGTQVTVSS	high polyreactivity
QVQLVESGGGLVQAGGSLRLSCAASGGIFRYYAMGWYRQAPGKERELVAAISRSTRTYYADSVKGRFTISRDNAKITVYLQMNSLKPEDTEVYYCAAKYVSRRYSRYNYWGQGTQVSVSS	high polyreactivity
QVQLVESGGGLVQAGGSLRLSCAASGRTLLYYAMGWYRQAPGKERELVAAISRSGGSTSYADSVKGRFTISRDNAKNTVYLQMNSLKPEDTAVYYCNAPRYYYWGQGTQVTVSS	high polyreactivity
QVQLVESGGGLVQAGGSLRLSCAASGSTSYDNSMGWNRKAPGKERELVAAITSDGGSTYYADSVKGRFTISRDKAKNTLYLQMNSLKPEDTAVYYCSADVVHQEWVYVYGGRDDYWGQGTQVTVSS	low polyreactivity
QVQLVESGGRLVQAGGSLRLSCAASGSIFQYYARGWYRQAPGKVREFVSAITSDGSSTYYADSVKGRFTISRDNAKNTVYLQMKSLKPEDTAVYYCAAGWVGYRRPSMYYWGQVTQVTVSS	high polyreactivity
